The values below come from patent US20040214902A1.

No end group written: not given here. *: point of attachment. 6FAM = O=C1OC2(c3ccc(O)cc3Oc3cc(O)ccc32)c2cc(C(=O)*)ccc21

This experiment addresses 46-kDa soluble recombinant GST-fused Bcl-2 protein (Santa Cruz Biotechnology) (human) (UniProt P10415). Briefly: fluorescence polarization saturation binding. In general terms: Polarisation of emitted light reports the rotation of a fluorescent probe.

Turning to 6FAM-NLWAAQRYGRELRRMSDEFVDSFKK, the dissociation constant Kd (commonly the constant that tells how readily two partners part at equilibrium) worked out at 6.9 nM.
